Experimental findings from US20240409599A1 (Genentech, published 2024) are described below.

One may read the Kd as the concentration at which binding is half-saturated. Read a low Kd as a tighter complex. For orientation: koff means a measure of how fast the partners let go of each other. A high value points to a short-lived complex. As usually defined, the kon is the second-order rate constant of association. Low values mean slow association, high ones fast association.

For experiment [1], the target named is T1, Human IL-18BP (isoform A) (human, UniProt O95998 31-194, biotinylated (site not stated)).
T1 construct: also called decoy receptor
T1 sequence: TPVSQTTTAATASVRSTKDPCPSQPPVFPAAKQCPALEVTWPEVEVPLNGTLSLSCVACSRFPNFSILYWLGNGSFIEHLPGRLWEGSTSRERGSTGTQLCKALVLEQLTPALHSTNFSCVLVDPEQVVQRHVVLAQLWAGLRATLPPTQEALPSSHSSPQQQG
In words: SPR, Biacore 8K, 37 C, biotinylated target on SA chip, single-cycle kinetics. Here is the method:
(§1) SPR experiments were performed using a Biacore 8K (Cytiva) at a temperature of 37° C. Biotinylated human or mouse IL-18Rα and IL-18BP were immobilized onto Biacore streptavidin sensor chip (Series S Sensor Chip SA, Cytiva) to yield an Rmax ≤50 RU. Measurements were made with five, three-fold dilutions into HBS-P+ buffer (10 mM HEPES pH 7.4, 150 mM NaCl, 0.005% surfactant P20). Interactions were evaluated using the single-cycle kinetics method and analyzed with the Biacore 8K evaluation software and fit to a 1:1 binding model.
(§2) A subset of variants were selected for analyses of binding kinetics to the L-18 receptor, IL-IM, and the decoy receptor, L-18BP, by surface plasmon resonance (SPR) (Table 8). With two exceptions, all kinetics constants are within an order of magnitude of wild-type IL-18.
A general note: SPR reads the build-up and loss of mass on a sensor chip optically.

The target of experiment [2] is T2, Human IL-18Rα extracellular domain (human, UniProt Q13478 22-329, biotinylated (site not stated)).
T2 construct: also called IL-18 receptor
T2 sequence: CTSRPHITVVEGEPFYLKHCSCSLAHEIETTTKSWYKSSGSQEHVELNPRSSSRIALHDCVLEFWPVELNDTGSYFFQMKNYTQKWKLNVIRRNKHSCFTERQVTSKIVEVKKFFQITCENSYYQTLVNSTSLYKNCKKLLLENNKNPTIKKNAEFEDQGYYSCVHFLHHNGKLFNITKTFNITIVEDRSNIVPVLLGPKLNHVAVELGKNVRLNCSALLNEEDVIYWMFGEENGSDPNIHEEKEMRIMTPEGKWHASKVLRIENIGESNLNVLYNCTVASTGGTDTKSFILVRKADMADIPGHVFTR
Briefly: SPR, Biacore 8K, 37 C, biotinylated target on SA chip. Here is the method: as §1, §2

Experiment [3] concerns the target T3, Mouse IL-18BP (isoform D) (mouse, UniProt Q9Z0M9 29-193, biotinylated (site not stated)).
T3 sequence: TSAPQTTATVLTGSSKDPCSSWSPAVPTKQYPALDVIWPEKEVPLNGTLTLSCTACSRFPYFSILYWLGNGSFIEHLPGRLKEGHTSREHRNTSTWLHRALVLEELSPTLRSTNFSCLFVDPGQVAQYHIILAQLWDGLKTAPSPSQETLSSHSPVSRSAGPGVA
Briefly: SPR, Biacore 8K, 37 C, biotinylated target on SA chip, single-cycle kinetics. The protocol: as §1, §2

Experiment [4] addresses T4, Mouse IL-18Rα extracellular domain (mouse, UniProt Q61098 20-326, biotinylated (site not stated)).
T4 sequence: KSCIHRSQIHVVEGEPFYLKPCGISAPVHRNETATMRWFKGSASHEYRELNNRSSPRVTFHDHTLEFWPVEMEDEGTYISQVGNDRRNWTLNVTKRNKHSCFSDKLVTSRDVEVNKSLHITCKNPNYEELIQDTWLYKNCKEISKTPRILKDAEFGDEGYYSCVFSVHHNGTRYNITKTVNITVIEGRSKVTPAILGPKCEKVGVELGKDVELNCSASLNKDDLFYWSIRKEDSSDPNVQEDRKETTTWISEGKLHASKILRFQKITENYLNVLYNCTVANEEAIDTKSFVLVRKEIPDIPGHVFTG
Described as above. The protocol:
as §1, §2

Where a chain is given by its changes, count along the chain named. Numbers in names are those of the source.

B1: Human IL-18 N50C (ligand)
chain: YFGKLESKLSVIRCLNDQVLFIDQGNRPLFEDMTDSDSRDNAPRTIFIISMYKDSQPRGMAVTISVKSEKISTLSSENKIISFKEMNPPDNIKDTKSDIIFFQRSVPGHDNKMQFESSSYEGYFLACEKERDLFKLILKKEDELGDRSIMFTVQNED
notes: Made in mammalian cells
In experiment [1], B1 yielded a Kd of 0.0062 nM, a koff of 2.6e-05 s⁻¹ and an on-rate constant (kon) of 4.22e+06 M⁻¹ s⁻¹. The binding result in experiment [2] is “no binding (tested: up to 81 nM)”.

B2: Human IL-18 N50C/L174C (ligand)
chain: B1 chain with S76C, L138C
notes: Made in mammalian cells
On to B2, for which, in experiment [1], the Kd was found to be 0.014 nM, the koff came to 4.8e-05 s⁻¹ and the kon was found to be 3.6e+06 M⁻¹ s⁻¹. The binding result in experiment [2] is “no binding (tested: up to 81 nM)”.

B3: Mouse IL-18 T44C/L189C (ligand)
chain: NFGRLHSTCAVIRNINDQVLFVDKRQPVFEDMTDIDQSASEPQTRLIIYMYKDSEVRGLAVTLSVKDSKMSTLSSKNKIISFEEMDPPENIDDIQSDLIFFQKRVPGHNKMEFESSLYEGHFLASQKEDDAFKLILKKKDENGDKSVMFTLTNCHQS
notes: Made in mammalian cells
In experiment [3], B3 showed a Kd of 0.005 nM, a koff of 1.1e-05 s⁻¹ and a kon of 2e+06 M⁻¹ s⁻¹. In experiment [4], this molecule gave a dissociation constant Kd of 5.2 nM, a koff of 0.04 s⁻¹ and an on-rate (kon) of 7.6e+06 M⁻¹ s⁻¹.
